Source: paper PMC8960412

Assays:
[1] = biological target: anti-huPD-1-huGITR-L bispecific (Anti-PD-1-GITR-L-hIgG1-LALA) (human) (UniProt Q9UNG2); assay: SPR; bispecific captured as in the human SPR, recombinant human or cynomolgus GITR-His as analyte; cross-species experiment (Supplementary Table 11)
[2] = biological target: anti-huPD-1-huGITR-L bispecific (Anti-PD-1-GITR-L-hIgG1-LALA) (human) (UniProt Q9UNG2); assay: SPR; Biacore T200; antibody constructs captured by goat anti-human H+L on a CM5 chip, recombinant human GITR-His as analyte; global 1:1 fit (Supplementary Table 3)
[3] = biological target: isotype/huGITR-L-hIgG1-LALA (human); assay: as above
[4] = biological target: human GITR on transfected HEK293 cells (human) (UniProt Q9Y5U5); assay: flow cytometry on cells; human GITR-HEK293 cells incubated with a serial dilution of antibodies; detected with PE goat anti-human IgG F(ab')2
[5] = biological target: anti-huPD-1-huGITR-L bispecific (Anti-PD-1-GITR-L-hIgG1-LALA) (human) (UniProt Q9UNG2); assay: SPR; as for human FcRn/β2m: samples immobilised, cyno FcRn/β2m as analyte; pH 6.0
[6] = biological target: isotype/huGITR-L-hIgG1-LALA (human); assay: as above
[7] = biological target: isotype-hIgG1-LALA (human); assay: as above
[8] = biological target: anti-PD-1-hIgG1-LALA (human); assay: as above
anti-PD-1-hIgG1-LALA (human), sequence (heavy, as listed by the source, chain 1 of 2): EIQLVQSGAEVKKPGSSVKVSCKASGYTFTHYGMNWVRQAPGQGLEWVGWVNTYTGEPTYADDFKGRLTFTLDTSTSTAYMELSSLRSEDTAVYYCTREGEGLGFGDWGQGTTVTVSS
anti-PD-1-hIgG1-LALA (human), sequence (light, as listed by the source, chain 2 of 2): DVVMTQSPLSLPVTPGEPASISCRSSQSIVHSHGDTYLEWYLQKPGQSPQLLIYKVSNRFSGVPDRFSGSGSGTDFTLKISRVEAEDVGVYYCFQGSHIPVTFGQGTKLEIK

[9] = biological target: anti-huPD-1-huGITR-L bispecific (Anti-PD-1-GITR-L-hIgG1-LALA) (human) (UniProt Q9UNG2); assay: SPR; Biacore T200; samples directly immobilised by amine coupling, human FcRn/β2m as analyte; running buffer pH 6.0
[10] = biological target: isotype/huGITR-L-hIgG1-LALA (human); assay: as above
[11] = biological target: isotype-hIgG1-LALA (human); assay: as above
[12] = biological target: anti-PD-1-hIgG1-LALA (human); assay: as above

## Hu GITR-His (recombinant extracellular domain of human GITR) (from UniProt Q9Y5U5 26-162) (domain or fragment)
[1]
  Kd: 0.0018 µM
  koff: 0.001 s⁻¹
  kon: 560000 M⁻¹ s⁻¹
[2]
  Kd: 0.016 µM
  koff: 0.0017 s⁻¹
  kon: 110000 M⁻¹ s⁻¹
[3]
  Kd: 0.015 µM
  koff: 0.0016 s⁻¹
  kon: 110000 M⁻¹ s⁻¹

## Cyno GITR-His (recombinant extracellular domain of cynomolgus GITR) (domain or fragment)
[1]
  Kd: 0.00079 µM
  koff: 0.00087 s⁻¹
  kon: 1.1e+06 M⁻¹ s⁻¹

## isotype/huGITR-L-hIgG1-LALA
[4]
  EC50: 0.0009 µM

## cyno FcRn/β2m heterodimer (from UniProt Q8SPV9 24-365; Q8SPW0 21-119) (complex)
[5]
  Kd: 2 µM
[6]
  Kd: 2.2 µM
[7]
  Kd: 1.7 µM
[8]
  Kd: 1.9 µM

## human FcRn/β2m heterodimer (from UniProt P55899 24-297; P61769 21-119) (complex)
[9]
  Kd: 2.3 µM
[10]
  Kd: 2.4 µM
[11]
  Kd: 2 µM
[12]
  Kd: 2.2 µM
